Numbering of substitutions follows the chain as printed. Blank lines part the entries; values can stand above or below the binder they belong to.
What was measured:
[1] = biological target: T1, recombinant cynomolgus monkey C5 (cynomolgus monkey, UniProt P01031 20-1676 (human entry), limits assumed); assay: SPR (Biacore), 37C, pH 7.4, Ab captured on ProA/G
T1 construct: also called cynoC5
T1 chain: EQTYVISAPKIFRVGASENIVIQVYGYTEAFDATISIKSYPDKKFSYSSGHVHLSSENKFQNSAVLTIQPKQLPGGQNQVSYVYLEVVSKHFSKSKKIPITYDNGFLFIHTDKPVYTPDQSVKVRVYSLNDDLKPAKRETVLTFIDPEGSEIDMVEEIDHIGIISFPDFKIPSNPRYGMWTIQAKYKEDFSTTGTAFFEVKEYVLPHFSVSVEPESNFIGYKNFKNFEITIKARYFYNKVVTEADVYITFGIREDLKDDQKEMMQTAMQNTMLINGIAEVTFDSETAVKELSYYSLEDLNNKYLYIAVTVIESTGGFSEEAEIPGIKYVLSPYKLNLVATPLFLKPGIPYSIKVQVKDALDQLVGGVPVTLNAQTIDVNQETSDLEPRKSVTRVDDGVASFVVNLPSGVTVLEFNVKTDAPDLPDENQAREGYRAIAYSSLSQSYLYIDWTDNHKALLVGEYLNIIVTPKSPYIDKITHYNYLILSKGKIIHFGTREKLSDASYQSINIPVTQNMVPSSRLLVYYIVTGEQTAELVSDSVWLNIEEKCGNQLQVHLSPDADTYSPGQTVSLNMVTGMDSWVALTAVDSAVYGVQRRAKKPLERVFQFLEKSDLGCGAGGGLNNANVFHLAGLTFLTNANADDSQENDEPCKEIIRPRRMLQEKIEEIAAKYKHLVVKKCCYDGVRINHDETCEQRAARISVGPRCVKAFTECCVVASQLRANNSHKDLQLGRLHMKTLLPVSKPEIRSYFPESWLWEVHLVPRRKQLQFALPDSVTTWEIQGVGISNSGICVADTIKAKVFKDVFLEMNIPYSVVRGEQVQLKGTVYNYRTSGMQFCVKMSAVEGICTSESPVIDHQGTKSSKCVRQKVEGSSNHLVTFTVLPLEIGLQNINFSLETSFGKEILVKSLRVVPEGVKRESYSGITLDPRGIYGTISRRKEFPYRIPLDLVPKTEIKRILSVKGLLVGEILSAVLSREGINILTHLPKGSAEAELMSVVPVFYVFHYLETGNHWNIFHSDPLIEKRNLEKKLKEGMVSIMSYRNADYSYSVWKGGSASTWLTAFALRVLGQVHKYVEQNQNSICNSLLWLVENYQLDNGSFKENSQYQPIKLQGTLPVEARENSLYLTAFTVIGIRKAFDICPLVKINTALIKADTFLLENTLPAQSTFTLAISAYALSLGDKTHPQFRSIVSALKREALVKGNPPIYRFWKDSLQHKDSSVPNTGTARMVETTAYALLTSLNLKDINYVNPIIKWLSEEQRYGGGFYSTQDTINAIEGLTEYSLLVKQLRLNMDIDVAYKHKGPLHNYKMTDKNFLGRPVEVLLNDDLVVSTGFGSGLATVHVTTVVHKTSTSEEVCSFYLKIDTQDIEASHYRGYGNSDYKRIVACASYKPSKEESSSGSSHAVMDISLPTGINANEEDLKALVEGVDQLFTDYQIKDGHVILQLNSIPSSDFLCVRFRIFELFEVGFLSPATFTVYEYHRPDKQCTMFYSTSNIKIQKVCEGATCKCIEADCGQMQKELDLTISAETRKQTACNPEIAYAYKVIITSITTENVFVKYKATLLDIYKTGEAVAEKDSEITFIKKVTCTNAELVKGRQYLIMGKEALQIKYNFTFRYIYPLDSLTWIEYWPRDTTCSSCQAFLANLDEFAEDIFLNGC
Experimental: To observe the cross-reactivity of anti-C5 antibodies against human C5 (hC5) and cynomolgus monkey C5 (cynoC5), BIACORE® kinetics analysis was performed.

[2] = biological target: T2, C5 peptide 33-108 fused to GST-tag (human, UniProt P01031 33-108); assay: summary drawing of the binding reactions to C5 beta-chain fragments
T2 construct: not shown: GST-tag (glutathione S-transferase); vector and linker not restated

[3] = biological target: T3, C5 peptide 45-111 fused to GST-tag (human, UniProt P01031 45-111); assay: as above
T3 construct: not shown: GST-tag (glutathione S-transferase); vector and linker not restated

[4] = biological target: T4, C5 peptide 45-124 fused to GST-tag (human, UniProt P01031 45-124); assay: as above
T4 construct: not shown: GST-tag (glutathione S-transferase); vector and linker not restated

[5] = biological target: T5, C5 peptide 52-124 fused to GST-tag (human, UniProt P01031 52-124); assay: as above
T5 construct: not shown: GST-tag (glutathione S-transferase); vector and linker not restated

[6] = biological target: T6, C5 peptide 33-111 fused to GST-tag (human, UniProt P01031 33-111); assay: as above
T6 construct: not shown: GST-tag (glutathione S-transferase); vector and linker not restated

[7] = biological target: T7, 161-340; assay: Western blot of E. coli lysates expressing GST-fused C5 beta-chain fragments
T7 construct: Expressed in E. coli
Experimental: (§1) Anti-C5 monoclonal antibodies (MAbs) were tested for binding to C5 β-chain-derived peptides in Western blot analysis. […] The E. coli samples were harvested after incubation with 1 mM Isopropyl β-D-1-thiogalactopyranoside (IPTG) for 5 hours at 37° C., and centrifuged at 20000×g for 1 min to obtain pellets.
T7 GST fusion polypeptide: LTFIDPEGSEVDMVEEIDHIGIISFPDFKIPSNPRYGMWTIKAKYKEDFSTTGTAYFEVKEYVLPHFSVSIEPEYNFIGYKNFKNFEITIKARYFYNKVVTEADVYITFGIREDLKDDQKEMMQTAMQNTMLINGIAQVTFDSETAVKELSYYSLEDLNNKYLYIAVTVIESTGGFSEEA

[8] = biological target: T8, 321-500; assay: as above
T8 construct: Expressed in E. coli
Experimental: as §1
T8 GST fusion polypeptide: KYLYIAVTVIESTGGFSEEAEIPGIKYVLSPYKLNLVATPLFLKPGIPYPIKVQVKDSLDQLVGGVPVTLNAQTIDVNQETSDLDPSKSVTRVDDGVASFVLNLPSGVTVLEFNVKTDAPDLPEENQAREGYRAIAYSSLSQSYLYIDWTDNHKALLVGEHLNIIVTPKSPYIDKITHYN

[9] = biological target: T9, 481-660; assay: as above
T9 construct: Expressed in E. coli
Experimental: as §1
T9 GST fusion polypeptide: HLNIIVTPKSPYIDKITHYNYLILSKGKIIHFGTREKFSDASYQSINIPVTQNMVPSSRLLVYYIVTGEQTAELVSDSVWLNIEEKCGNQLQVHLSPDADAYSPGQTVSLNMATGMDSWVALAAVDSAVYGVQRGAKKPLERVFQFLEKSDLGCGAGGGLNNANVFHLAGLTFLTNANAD

[10] = biological target: T10, recombinant human C5 (human, UniProt P01031 20-1676); assay: SPR (Biacore), 37C, association at pH 7.4, dissociation at pH 5.8
T10 construct: Also used for the C5 of normal human serum in the functional rows; also called hC5; rhC5
Experimental: (§2) The kinetic parameters of anti-C5 antibodies against recombinant human C5 were assessed at 37° C. using BIACORE® T200 instrument (GE Healthcare) at three different conditions; (1) both association and dissociation were at pH7.4, (2) both association and dissociation were at pH5.8, and (3) association was at pH7.4 but dissociation was at pH5.8. ProA/G (Pierce) was immobilized onto a CM1 sensorchip using amine coupling kit (GE Healthcare) according to the recommended settings by GE Healthcare. Antibodies and analytes for condition (1) and (3) were diluted in ACES pH7.4 buffer (20 mM ACES, 150 mM NaCl, 1.2 mM CaCl₂, 0.05% Tween 20, 0.005% NaN₃) and for condition (2) they were diluted in ACES pH5.8 buffer (20 mM ACES, 150 mM NaCl, 1.2 mM CaCl₂, 0.05% Tween 20, 0.005% NaN₃). […] The surface was regenerated using 25 mM NaOH. Kinetic parameters at condition (1) and (2) were determined by fitting the sensorgrams with a 1:1 binding model and the dissociation rate at condition (3) was determined by fitting the sensorgrams with a 1:1 dissociation for MCK model using BIACORE® T200 Evaluation software, version 2.0 (GE Healthcare). pH dependency of all antibodies were shown as ratio of dissociation rate of condition (2) and (1).

[11] = biological target: T10, recombinant human C5; assay: SPR (Biacore), ratio of dissociation rates of conditions (2) and (1)
Experimental: as §2

[12] = biological target: T10, recombinant human C5; assay: SPR (Biacore), 37C, association and dissociation at pH 5.8, Ab on ProA/G
Experimental: as §2

[13] = biological target: T10, recombinant human C5; assay: SPR (Biacore), 37C, association and dissociation at pH 7.4, Ab on ProA/G
Experimental: as §2

T5 sequence (P01031 52-124): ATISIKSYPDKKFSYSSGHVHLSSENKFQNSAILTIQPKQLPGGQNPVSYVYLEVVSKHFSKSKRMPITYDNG
T3 sequence (P01031 45-111): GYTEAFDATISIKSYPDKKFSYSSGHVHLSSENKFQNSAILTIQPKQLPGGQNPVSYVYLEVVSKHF
T6 sequence (P01031 33-111): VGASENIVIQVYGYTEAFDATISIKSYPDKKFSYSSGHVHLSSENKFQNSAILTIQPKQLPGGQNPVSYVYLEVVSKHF
T2 sequence (P01031 33-108): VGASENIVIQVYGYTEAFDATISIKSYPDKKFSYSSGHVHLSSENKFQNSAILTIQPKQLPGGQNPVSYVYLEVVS
T4 sequence (P01031 45-124): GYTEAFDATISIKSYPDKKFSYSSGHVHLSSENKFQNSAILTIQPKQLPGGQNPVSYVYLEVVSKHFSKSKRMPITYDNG

B3: CFA0501 (antibody, V domains shown)
VH: QSVEESGGRLVTPGTPLTLTCTASGFSLSSYYMNWVRQAPGKGLEWIGMIYGSGATYYASWAKGRFTISKTSSTTVDLKMTSLTTEDTATYFCARQIYSGDNNDNFWGPGTLVTVSS
VL: AYDMTQTPASVEVAVGGTVTINCQASESISNWLAWYQQKPGQRPKLLIYRASTLASGVSSRFKGSGSGTQFTLTISGVECDDAATYYCQQDYSSSNVDNTFGGGTKVVVE
notes: Chimeric, rabbit V regions; also called CFA0501-F760G4
Kd [1]: 5.88 nM
binding result [2]: no binding
binding result [3]: no binding
binding result [4]: no binding
binding result [5]: no binding
binding result [6]: no binding
binding result [7]: no binding
binding result [8]: no binding
binding result [9]: no binding

B5: 305LO20-SG115 (antibody, human IgG1)
heavy: QVQLVESGGGLVQPGGSLRLSCAASGFTVHSSYYMAWVRQAPGKGLEWVGAIFTGSGAEYKAEWAKGRVTISKDTSKNQVVLTMTNMDPVDTATYYCASDAGYDYPTHAMHYWGQGTLVTVSSASTKGPSVFPLAPSSKSTSGGTAALGCLVKDYFPEPVTVSWNSGALTSGVHTFPAVLQSSGLYSLSSVVTVPSSSLGTQTYICNVNHKPSNTKVDKKVEPKSCDKTHTCPPCPAPELRRGPKVFLFPPKPKDTLMISRTPEVTCVVVDVSHEDPEVKFNWYVDGVEVHNAKTKPREEQYNSTYRVVSVLTVLHQDWLNGKEYKCKVSNKGLPSSIEKTISKAKGQPREPQVYTLPPSREEMTKNQVSLTCLVKGFYPSDIAVEWESNGQPENNYKTTPPVLDSDGSFFLYSKLTVDKSRWQQGNVFSCSVLHEALHAHYTRKELSLSP
light: DIQMTQSPSSLSASVGDRVTITCRASQGISSSLAWYQQKPGQAPRLLIYGASETESGVPSRFSGSGSGTDFTLTISSLQPEDFATYYCQNTKVGSSYGNTFGGGTKVEIKRTVAAPSVFIFPPSDEQLKSGTASVVCLLNNFYPREAKVQWKVDNALQSGNSQESVTEQDSKDSTYSLSSTLTLSKADYEKHKVYACEVTHQGLSSPVTKSFNRGEC
notes: Modified human IgG1 CH SG115, human CL SK1
koff [10]: 0.0161 s⁻¹
pH dependency (kd pH 5.8 / kd pH 7.4) [11]: 17.5 fold
koff [12]: 0.00818 s⁻¹
kon [12]: 141000 M⁻¹ s⁻¹
koff [13]: 0.000467 s⁻¹
kon [13]: 1.44e+06 M⁻¹ s⁻¹

B6: 305LO23-SG115 (antibody, human IgG1, V domains shown)
VH: QVQLVESGGGLVQPGGSLRLSCAASGFTVHSSYYMAWVRQAPGKGLEWVSGIFTGSGATYKAEWAKGRVTISKDTSKNQVVLTMTNMDPVDTATYYCASDAGYDYPTHAMHYWGQGTLVTVSS
VL: DIQMTQSPSSLSASVGDRVTITCRASQGISSSLAWYQQKPGQAPRLLIYGASTTQSGVPSRFSGSGSGTDFTLTISSLQPEDFATYYCQNTKVGSSYGNTFGGGTKVEIKR
notes: as for B5
koff [10]: 0.0173 s⁻¹
pH dependency (kd pH 5.8 / kd pH 7.4) [11]: 20.2 fold
koff [12]: 0.00855 s⁻¹
kon [12]: 133000 M⁻¹ s⁻¹
koff [13]: 0.000423 s⁻¹
kon [13]: 1.53e+06 M⁻¹ s⁻¹

B7: 305LO16-SG422 (antibody, human IgG4, V domains shown)
VH: QVQLVESGGGLVQPGRSLRLSCAASGFTVHSSYYMAWVRQAPGKGLEWVGAIFTGSGAEYKAEWVKGRFTISRDNSKNTLYLQMNSLRAEDTAVYYCASDAGYDYPTHAMHYWGRGTLVTVSS
VL: B6 VL with Q42K, R45K, T53E, Q55E
notes: Modified human IgG4 CH SG422, human CL SK1
koff [10]: 0.0161 s⁻¹
pH dependency (kd pH 5.8 / kd pH 7.4) [11]: 21.1 fold
koff [12]: 0.00869 s⁻¹
kon [12]: 109000 M⁻¹ s⁻¹
koff [13]: 0.000412 s⁻¹
kon [13]: 1.28e+06 M⁻¹ s⁻¹

Other lines, results leading:

Kd [1]: 4.33 nM
binding result [2]: no binding
binding result [3]: no binding
binding result [4]: no binding
binding result [5]: no binding
binding result [6]: no binding
binding result [7]: no binding
binding result [8]: no binding
binding result [9]: no binding
B1: CFA0599 (antibody, V domains shown)
VH: QSVEESGGRLVTPGTPLTLTCTVSGLSLSDNTMTWVRQAPGKGLEWIGIISFGGDAYYASWAKGRFPISKTSTTVDLRITSPTTEDTATYFCARVGAGNIFWYFDLWGPGTLVTVSS
VL: AYDMTQTPASVEVSVGGTVTIKCQASESIYSALAWYQQKPGQPPKLLIYSASTLASGVPSRFKGSGSGTEYTLTISDLECADAATYYCQQYYSSTNVHNSFGGGTTVVVE
notes: Chimeric, rabbit V regions; also called CFA0599-F760G4

Kd [1]: 1.57 nM
binding result [2]: no binding
binding result [3]: no binding
binding result [4]: no binding
binding result [5]: no binding
binding result [6]: no binding
binding result [7]: no binding
binding result [8]: no binding
binding result [9]: no binding
B2: CFA0666 (antibody, V domains shown)
VH: QSVEESGGRLVTPGTPLTLTCTVSGFSLSTYAMGWVRQAPGKGLEWIGTIDTGDNSFYANWAKGRFTISKTSTTVDLKITSPTAEDTATYFCARNDGSVYNLFNLWGPGTLVTVSS
VL: DVVMTQTPASVSAAVGGTVTIKCQASENIYSALSWYQQKPGLRPRLLIYYASTLASGVPSRFKGSRSGTEFTLTISDLECADAATYYCQQYYDINSVDNTFGGGTKVVVE
notes: Chimeric, rabbit V regions; also called CFA0666-F760G4

Kd [1]: 5.44 nM
binding result [2]: no binding
binding result [3]: no binding
binding result [4]: no binding
binding result [5]: no binding
binding result [6]: no binding
binding result [7]: no binding
binding result [8]: no binding
binding result [9]: no binding
B4: CFA0538 (antibody, V domains shown)
VH: B3 VH
VL: B3 VL with K106T
notes: Chimeric, rabbit V regions; also called CFA0538-F760G4
